The experiment concerns the target DR5 receptor (TRAIL-R2, TNFRSF10B) (human) (UniProt O14763). The experiment in a line: cell-based or functional assay.

Sequence of DR5 receptor (TRAIL-R2, TNFRSF10B) (human) (O14763 56-440): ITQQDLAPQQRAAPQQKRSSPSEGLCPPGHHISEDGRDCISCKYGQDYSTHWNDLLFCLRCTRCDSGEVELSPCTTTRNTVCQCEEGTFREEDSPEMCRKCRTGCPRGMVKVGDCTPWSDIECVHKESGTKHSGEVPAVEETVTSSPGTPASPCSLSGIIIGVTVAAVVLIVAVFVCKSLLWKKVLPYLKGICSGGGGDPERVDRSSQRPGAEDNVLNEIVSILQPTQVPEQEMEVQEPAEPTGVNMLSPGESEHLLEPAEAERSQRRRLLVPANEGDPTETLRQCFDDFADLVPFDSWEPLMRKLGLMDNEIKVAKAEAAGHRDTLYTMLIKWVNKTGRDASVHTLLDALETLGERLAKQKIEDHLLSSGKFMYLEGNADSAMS

The substance “TLY012 (PEGylated miLZ-TRAIL; PEGylated form of recombinant human TRAIL fused to a modified isoleucine zipper at the N-terminus) (ligand)” displayed an IC50, nM (cell viability / cytotoxicity, COLO-205 cells, CellTiter-Glo) of 0.0155 nM.
